Test results: patent publication US20240083986A1 (published 2024)
Numbering of substitutions follows the chain as printed. Numbers in names are those of the source. Values belong to the binder of their own block, whether it stands above or below them.

What was measured:
mutant Bet v 1-MMH [1] = molecular target: T1, mutant Bet v 1-MMH (Betula verrucosa (European white birch, …)); assay: BLI Octet HTX, mutant Bet v 1-MMH captured on anti-Penta-His tips, 25C
T1 construct: also called CHO produced recombinant Bet v 1 containing a S85A mutation with a C-terminal myc-myc hexahistidine tag
T1 chain: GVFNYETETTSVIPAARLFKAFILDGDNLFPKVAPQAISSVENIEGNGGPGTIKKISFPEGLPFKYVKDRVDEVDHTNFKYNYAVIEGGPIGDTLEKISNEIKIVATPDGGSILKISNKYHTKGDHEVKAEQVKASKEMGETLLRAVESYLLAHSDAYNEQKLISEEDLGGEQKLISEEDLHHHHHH

[2] = molecular target: T2, natural Bet v 1 (Indoor, Cat #NA-BV1-1) (Betula verrucosa (European white birch, …, UniProt P15494 2-160)); assay: SPR Biacore, mAb captured on anti-hFc, 25C;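 further: rate constants from sensorgrams fitted to a 1:1 model with mass transport limitation, KD and t½ derived from kinetic constants, run in HBS-ET buffer at pH 7.4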
T2 construct: Bought natural protein purified from birch pollen; also called nBet v 1
T2 sequence: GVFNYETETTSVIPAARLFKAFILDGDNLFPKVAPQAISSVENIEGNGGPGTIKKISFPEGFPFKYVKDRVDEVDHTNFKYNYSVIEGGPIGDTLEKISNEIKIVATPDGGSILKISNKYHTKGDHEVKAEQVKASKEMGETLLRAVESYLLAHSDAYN

[3] = molecular target: T2, natural Bet v 1 (Indoor, Cat #NA-BV1-1); assay: SPR Biacore, mAb captured on anti-hFc, 37C;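 further: purified anti-Bet v 1 monoclonal antibodies, HBS-ET running buffer pH 7.4, rate constants from 1:1 model fit with mass transport limitation, KD and t½ calculated from kinetic constants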
[4] = molecular target: T3, Apple (Mal d 1, MyBiosource, Cat #MBS1224919) (Apple, UniProt P43211 2-159, limits assumed); assay: SPR Biacore, 25C;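 further: binding of related allergens to purified monoclonal anti-Bet v 1 antibodies by surface plasmon resonance in HEPES-buffered saline pH 7.4, kinetics fitted to a 1:1 model with mass transport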
T3 construct: Bought reagent
T3 sequence (looked up): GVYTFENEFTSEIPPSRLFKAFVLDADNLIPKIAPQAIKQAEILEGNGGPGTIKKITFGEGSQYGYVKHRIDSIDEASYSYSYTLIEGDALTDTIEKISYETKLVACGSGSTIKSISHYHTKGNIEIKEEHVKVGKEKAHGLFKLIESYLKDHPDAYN

[5] = molecular target: T4, Celery (Api g 1, MyBiosource, Cat #MBS1171376) (Celery, UniProt P49372 1-154, limits assumed); assay: SPR Biacore, 25C;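 further: binding of related allergens to purified monoclonal anti-Bet v 1 antibodies by surface plasmon resonance in HEPES-buffered saline pH 7.4, kinetics fitted to a 1:1 model with mass transport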
T4 construct: Bought reagent
T4 sequence (looked up): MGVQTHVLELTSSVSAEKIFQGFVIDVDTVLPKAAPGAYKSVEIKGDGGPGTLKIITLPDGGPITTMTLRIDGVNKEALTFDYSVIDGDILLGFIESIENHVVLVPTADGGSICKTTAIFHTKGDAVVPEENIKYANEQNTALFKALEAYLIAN

[6] = molecular target: T5, European Hornbeam (Car b 1 isoform 1A & 1B, MyBiosource, Cat #MBS1200018) (European Hornbeam, UniProt P38949 2-160); assay: SPR Biacore, 25C;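 further: binding of related allergens to purified monoclonal anti-Bet v 1 antibodies by surface plasmon resonance in HEPES-buffered saline pH 7.4, kinetics fitted to a 1:1 model with mass transport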
T5 construct: Bought reagent
T5 sequence (looked up): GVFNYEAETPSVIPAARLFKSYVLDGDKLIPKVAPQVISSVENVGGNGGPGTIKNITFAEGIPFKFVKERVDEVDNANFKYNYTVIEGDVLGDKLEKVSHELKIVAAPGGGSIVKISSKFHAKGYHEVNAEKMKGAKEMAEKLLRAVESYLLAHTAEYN

mutant Bet v 1-MMH [7] = molecular target: T6, mutant Bet v 1-MMH (Betula verrucosa (Betula pendula)); assay: BLI Octet, mutant Bet v 1-MMH captured on anti-Penta-His tips
T6 construct: CHO produced; also called recombinant mutant Bet v 1 with C-terminal myc-myc-hexahistidine tag
T6 chain: T1 chain

natural Bet v 1 [8] = molecular target: T7, natural Bet v 1 (Betula verrucosa (Betula pendula), UniProt P15494 2-160); assay: blocking ELISA, biotin nBet v 1 to captured IgE, donor 23658-MD
T7 construct: bought natural protein (Indoor Biotechnologies #NA-BV1-1); also called nBet v 1; Biotinylated Bet v 1
T7 chain: T2 sequence with F62L

natural Bet v 1 [9] = molecular target: T7, natural Bet v 1; assay: dose-response blocking ELISA, biotin nBet v 1 to captured IgE, donor 25609-MS
natural Bet v 1 [10] = molecular target: T7, natural Bet v 1; assay: blocking ELISA, biotin nBet v 1 to captured IgE, donor 25299-RJ
natural Bet v 1 [11] = molecular target: T7, natural Bet v 1; assay: blocking ELISA, biotin nBet v 1 to captured IgE, donor 25609-MS
natural Bet v 1 [12] = molecular target: T7, natural Bet v 1; assay: blocking ELISA, biotin nBet v 1 to captured IgE, donor 25340-RR
natural Bet v 1 [13] = molecular target: T7, natural Bet v 1; assay: dose-response blocking ELISA, biotin nBet v 1 to captured IgE, donor 25340-RR
natural Bet v 1 [14] = molecular target: T7, natural Bet v 1; assay: blocking ELISA, biotin nBet v 1 to captured IgE, donor 23939-MH
natural Bet v 1 [15] = molecular target: T7, natural Bet v 1; assay: blocking ELISA, biotin nBet v 1 to captured IgE, donor 23035-BL
natural Bet v 1 [16] = molecular target: T7, natural Bet v 1; assay: blocking ELISA, biotin nBet v 1 to captured IgE, donor 26532-CC
natural Bet v 1 [17] = molecular target: T7, natural Bet v 1; assay: blocking ELISA, biotin nBet v 1 to captured IgE, donor 29718-MW
natural Bet v 1 [18] = molecular target: T7, natural Bet v 1; assay: blocking ELISA, biotin nBet v 1 to captured IgE, donor 22627-MN
natural Bet v 1 [19] = molecular target: T7, natural Bet v 1; assay: blocking ELISA, biotin nBet v 1 to captured IgE, donor 25414-CW
natural Bet v 1 [20] = molecular target: T7, natural Bet v 1; assay: dose-response blocking ELISA, biotin nBet v 1 to captured IgE, donor 23939-MH
[21] = molecular target: T8, Alder (Aln g 1, MyBiosource, Cat #MBS1041484) (Alder, UniProt P38948 2-160, limits assumed); assay: SPR Biacore, 25C;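 further: binding of related allergens to purified monoclonal anti-Bet v 1 antibodies by surface plasmon resonance in HEPES-buffered saline pH 7.4, kinetics fitted to a 1:1 model with mass transport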
T8 construct: Bought reagent
T8 sequence (looked up): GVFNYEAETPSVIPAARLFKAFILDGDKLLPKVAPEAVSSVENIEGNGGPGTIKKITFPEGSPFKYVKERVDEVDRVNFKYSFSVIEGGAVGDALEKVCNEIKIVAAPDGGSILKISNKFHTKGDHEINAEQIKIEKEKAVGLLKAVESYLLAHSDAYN

[22] = molecular target: T2, natural Bet v 1 (Indoor, Cat #NA-BV1-1); assay: cell-based or functional assay

- binding result (mutant Bet v 1-MMH [1]): no binding (tested: 50 µg/mL)
- 100 nM natural Bet v 1 Bound (RU) [2]: 71 RU
- Kd [2]: 1 nM
- koff [2]: 0.000329 s⁻¹
- kon [2]: 329000 M⁻¹ s⁻¹
- t½ [2]: 35 min
- 100 nM natural Bet v 1 Bound (RU) [3]: 87 RU
- Kd [3]: 2.52 nM
- koff [3]: 0.00122 s⁻¹
- kon [3]: 485000 M⁻¹ s⁻¹
- t½ [3]: 9.5 min
- binding result [4]: no binding (tested: 100 nM)
- binding result [5]: no binding (tested: 100 nM)
- binding result [6]: no binding (tested: 100 nM)
B1: H4H17001P (antibody, human IgG4, V domains shown)
VH: QVQLVESGGGLVKPGGSLRLSCAASGFTFSDYYMNWIRQAPGKGLEWISLISSSGSAIYYSDSVKGRFTISRDNARKSLYLQVNSLRAEDTAVYYCARDRGEWALGAYYYGLDVWGQGTTVTVSS
VL: DIVMTQSPLSLPVTPGEPASISCRSSQSLLHSDGYNYLDWYLQKSGQSPQLLIYLGSNRASGVPDRFSGSGSGTDFTLKISRMEAEDVGVYYCMQALQTPYTFGQGTKLEIK

- binding result (mutant Bet v 1-MMH [7]): no binding (tested: 50 µg/mL)
B2: H4H17001P (antibody, human IgG4, V domains shown)
VH: B1 VH
VL: B1 VL
notes: human IgG4 Fc (H4H prefix)

- Percent Blocking (at 1 µg/mL each antibody) (natural Bet v 1 [8]): 27%
- Percent Blocking (at 1 µg/mL each antibody) (natural Bet v 1 [9]): 21.6%
- Percent Blocking (at 1 µg/mL each antibody) (natural Bet v 1 [10]): 9%
- Percent Blocking (at 1 µg/mL each antibody) (natural Bet v 1 [11]): 16%
- Percent Blocking (at 1 µg/mL each antibody) (natural Bet v 1 [12]): 15%
- Percent Blocking (at 1 µg/mL each antibody) (natural Bet v 1 [13]): 11.1%
- Percent Blocking (at 1 µg/mL each antibody) (natural Bet v 1 [14]): 16%
- Percent Blocking (at 1 µg/mL each antibody) (natural Bet v 1 [15]): -46%
- Percent Blocking (at 1 µg/mL each antibody) (natural Bet v 1 [16]): 4%
- Percent Blocking (at 1 µg/mL each antibody) (natural Bet v 1 [17]): 13%
- Percent Blocking (at 1 µg/mL each antibody) (natural Bet v 1 [18]): 12%
- Percent Blocking (at 1 µg/mL each antibody) (natural Bet v 1 [19]): -4%
- Percent Blocking (at 1 µg/mL each antibody) (natural Bet v 1 [20]): 19.6%
B3: H4H16987P (antibody, human IgG4 S228P, kappa, V domains shown)
VH: EVQLVESGGGLVQPGGSLRLSCAASGFTVSSNSMSWVRQAPGEGLEWVSVIFSGGITYYSDSVKGRFTISRHNSKNTLYLQMNSLRTEDTAVYYCARHSNWNFDAFDIWGQGTMVTVSS
VL: DIQMTQSPSSLSASVGDRVTITCRASQSFDTYLNWYQQKPGKAPNLLIYATSSLQSGVPSRFSGSGSGTDFTLTISSLQPEDFGTYYCQQSYSIPYTFGQGTKLEIKR
notes: fully human, human IgG4 Fc (H4H prefix); also called MAB4

- binding result (mutant Bet v 1-MMH [1]): no binding (tested: 50 µg/mL)
- 100 nM natural Bet v 1 Bound (RU) [2]: 71 RU
- Kd [2]: 1.4 nM
- koff [2]: 0.00023 s⁻¹
- kon [2]: 164000 M⁻¹ s⁻¹
- t½ [2]: 50 min
- 100 nM natural Bet v 1 Bound (RU) [3]: 88 RU
- Kd [3]: 4.89 nM
- koff [3]: 0.00127 s⁻¹
- kon [3]: 260000 M⁻¹ s⁻¹
- t½ [3]: 9.1 min
- binding result [4]: no binding (tested: 100 nM)
- binding result [5]: no binding (tested: 100 nM)
- binding result [21]: no binding (tested: 100 nM)
B4: H4H16943P (antibody, human IgG4, V domains shown)
VH: EVQLVESGGGLVQPGGSLRLSCTASGFMSSMYWMSWVRQAPGKGLEWVSNIKQDGTEKNYVESVKGRFTISRDNAKNSLYLQINSLRGEDTAVYYCARDLYSSSSGYYYYGLDVWGQGTTVTVSS
VL: DIVMTQSPLSLPVTPGEPASISCRSSQSLLHSNKYNYLDWYLQKPGQSPQLLIYLSSNRASGVPDRFSGSGSGTEFTLKISRVEAEDVGIYYCMQALHTPLTFGGGTKVEIK

- binding result (mutant Bet v 1-MMH [7]): no binding (tested: 50 µg/mL)
B5: H4H16943P (antibody, human IgG4, V domains shown)
VH: B4 VH
VL: B4 VL
notes: human IgG4 Fc (H4H prefix)

- 100 nM natural Bet v 1 Bound (RU) [2]: 72 RU
- Kd [2]: 1.09 nM
- 100 nM natural Bet v 1 Bound (RU) [3]: 83 RU
- Kd [3]: 2.43 nM
- t½ [3]: 6.3 min
- blockade of basophil activation (phospho-Erk MFI in basophils of PBMCs of birch allergic donors, 100 pM natural Bet v 1) [22]: 70%
B6: H4H17082P2 (antibody, human IgG4 S228P, kappa, V domains shown)
VH: QVQLVQSGAEVKKPGASVKVSCKASGYTFISYNIFWVRQATGQGLDWMGWMNPFRNNAGYAQKFQGRVTVTWDTSISTAYMELSSLSSEDTAIYYCAREHGSSWGFFDYWGQGTLVTVSS
VL: not shown
notes: human IgG4; also called REGN5715; MAB2

- Percent Blocking (at 1 µg/mL each antibody) (natural Bet v 1 [9]): 56.4%
- Percent Blocking (at 1 µg/mL each antibody) (natural Bet v 1 [10]): 66%
- Percent Blocking (at 1 µg/mL each antibody) (natural Bet v 1 [11]): 51%
- Percent Blocking (at 1 µg/mL each antibody) (natural Bet v 1 [12]): 81%
- Percent Blocking (at 1 µg/mL each antibody) (natural Bet v 1 [13]): 82.7%
- Percent Blocking (at 1 µg/mL each antibody) (natural Bet v 1 [14]): 79%
- Percent Blocking (at 1 µg/mL each antibody) (natural Bet v 1 [15]): 52%
- Percent Blocking (at 1 µg/mL each antibody) (natural Bet v 1 [16]): 74%
- Percent Blocking (at 1 µg/mL each antibody) (natural Bet v 1 [17]): 49%
- Percent Blocking (at 1 µg/mL each antibody) (natural Bet v 1 [19]): 38%
- Percent Blocking (at 1 µg/mL each antibody) (natural Bet v 1 [20]): 82.9%
B7: H4H17082P2 (antibody, human IgG4 S228P, kappa, V domains shown)
VH: B6 VH
VL: not shown
notes: fully human, human IgG4 Fc (H4H prefix); also called MAB2; REGN5715
